From patent publication US20130330346A1 (Novartis, published 2013)
Numbering of substitutions follows the chain as printed. Like-named read-outs stand apart in the source and are kept apart here. Ends that are not written are not given here.

What was measured:
[1] = target: T1, Human CXCR2 (human, UniProt P25025 1-360); assay: immunoluminescence, HEK-293T with wild type receptor, 1.0 ug/ml, anti-myc detection
T1 construct: Some cell lines carry an N-terminal 3xHA tag; also called hCXCR2; huCXCR2
T1 sequence: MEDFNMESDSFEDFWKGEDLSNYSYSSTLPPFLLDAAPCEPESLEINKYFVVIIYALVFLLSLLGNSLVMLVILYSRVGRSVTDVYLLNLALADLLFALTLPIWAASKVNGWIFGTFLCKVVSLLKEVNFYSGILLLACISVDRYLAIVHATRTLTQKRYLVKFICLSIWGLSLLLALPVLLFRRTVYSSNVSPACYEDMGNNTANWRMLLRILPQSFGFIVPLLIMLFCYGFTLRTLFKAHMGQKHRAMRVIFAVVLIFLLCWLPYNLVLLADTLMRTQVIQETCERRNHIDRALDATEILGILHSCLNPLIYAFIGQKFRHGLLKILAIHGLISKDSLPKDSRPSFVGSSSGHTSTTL

[2] = target: T1, Human CXCR2; assay: cell-based or functional assay
[3] = target: T2, Cynomolgus CXCR2 (cynomolgus, UniProt Q28519 3-353 (rhesus entry)); assay: cell-based or functional assay
T2 chain: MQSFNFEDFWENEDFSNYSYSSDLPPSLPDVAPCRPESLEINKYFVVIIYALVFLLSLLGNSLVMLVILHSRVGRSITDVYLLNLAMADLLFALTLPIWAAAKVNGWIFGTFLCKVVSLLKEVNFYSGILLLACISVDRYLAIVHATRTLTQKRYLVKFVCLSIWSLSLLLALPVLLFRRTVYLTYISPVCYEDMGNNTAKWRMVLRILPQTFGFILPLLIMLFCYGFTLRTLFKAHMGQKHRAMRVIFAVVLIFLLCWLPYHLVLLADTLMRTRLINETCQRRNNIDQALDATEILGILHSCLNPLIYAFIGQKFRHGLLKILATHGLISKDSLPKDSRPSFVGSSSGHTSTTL

[4] = target: T1, Human CXCR2; assay: FACS hGro-α competition
[5] = target: T2, Cynomolgus CXCR2; assay: FACS hGro-α competition
[6] = target: T1, Human CXCR2; assay: FACS hGro-α competition; remark: listed apart in the source
[7] = target: T2, Cynomolgus CXCR2; assay: FACS hGro-α competition
[8] = target: T1, Human CXCR2; assay: cell-based or functional assay; remark: listed apart in the source
[9] = target: T2, Cynomolgus CXCR2; assay: cell-based or functional assay
[10] = target: T3, Human 1to19 peptide (human); assay: peptide ELISA of Table 8 (ratio 0.6)
T3 construct: First 19 N-terminal amino acids of human CXCR2, captured on neutravidin; also called human CXCR2 1 to19 peptide; 1-19 Nter peptide
T3 peptide: MEDFNMESDSFEDFWKGED-biotin

[11] = target: T1, Human CXCR2; assay: cell-based or functional assay; remark: listed apart in the source
[12] = target: T2, Cynomolgus CXCR2; assay: cell-based or functional assay
[13] = target: T1, Human CXCR2; assay: FACS hGro-α competition; remark: listed apart in the source
[14] = target: T2, Cynomolgus CXCR2; assay: FACS hGro-α competition
[15] = target: T1, Human CXCR2; assay: cell-based or functional assay; remark: listed apart in the source
[16] = target: T2, Cynomolgus CXCR2; assay: cell-based or functional assay
[17] = target: T1, Human CXCR2; assay: cell-based or functional assay; remark: listed apart in the source
[18] = target: T1, Human CXCR2; assay: FACS competition vs 3 nM FMAT-Blue Gro-α
Protocol: (§1) Purified monovalent anti-CXCR2Nanobodies were titrated against 3 nM FMAT-Blue-labeled Gro-α in the FACS ligand competition assay on human and cynomolgus CXCR2 (Table 10). On human CXCR2, blocking potencies range between double digit nM and sub-nM whereas on cynomolgus CXCR2, they range between single and double digit nM.

[19] = target: T2, Cynomolgus CXCR2; assay: FACS competition vs 3 nM FMAT-Blue Gro-α
Protocol: as §1

[20] = target: T3, Human 1to19 peptide; assay: ELISA, periplasmic extract on biotinylated peptide
Protocol: In another setup, periplasmic extracts were analyzed for binding to human 1 to 19 peptide by ELISA. MaxiSorb plates (Nunc, 430341) were coated for two hours with neutravidin followed by one hour blocking (PBS, 1% casein). Then 100 nM biotinylated human 1 to 19 peptide was added to these plates for one hour (PBS, 0.1% casein, 0.05% tween20) followed by one hour incubation with 10-fold dilutions of periplasmic extracts. Unbound periplasmic extracts were washed away (PBS supplemented with 0.05% tween20) and bound Nanobodies were detected using mouse anti-myc (Roche, 11667149001) followed by rabbit anti-mouse-HRP conjugate (Dakocytomation, P0260). Table 8 summarizes the ratios of the binding signals of anti-CXCR2Nanobodies over an irrelevant control Nanobody.

[21] = target: T1, Human CXCR2; assay: FACS, periplasmic extract vs FMAT Blue Gro-α
In short: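 Cells (2×10⁵) preincubated 30 min at 4 °C with ½-diluted periplasmic extracts in PBS/10% FBS. An equal volume of 6 nM FMAT Blue-labelled human Gro-α was then added for another 30 min at 4 °C in the dark. After washing, dead cells were excluded with propidium iodide and binding read by flow cytometry.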

[22] = target: T1, Human CXCR2; assay: cell-based or functional assay; remark: listed apart in the source
[23] = target: T2, Cynomolgus CXCR2; assay: cell-based or functional assay
[24] = target: T1, Human CXCR2; assay: immunoluminescence, HEK-293T with wild type receptor, 2.0 ug/ml, anti-myc detection

B1: CXCR20079 (VHH)
VHH: EVQLLESGGGLVQPGGSLRLSCAASGSTFDFKVMGWYRQAPGKQREGVAAIRLSGNRHYAESVKGRFTISRANSKNTVYLQMNSLRPEDTAVYYCKVNIRGQDYWGQGTLVTVSS
notes: also called RD-HBC792; RDHBC 792
[1]
  Signal:Background: 13 ratio
[2]
  FLIPR hGro-α IC50: 10 nM
[3]
  FLIPR hGro-α IC50: 450 nM
[4]
  IC50: 0.8 nM
[5]
  IC50: 2.8 nM

B2: CXCR20061 (VHH)
VHH: EVQLLESGGGLVQPGGSLRLSCAASGSIVRINTMGWYRQAPGKQRELVADITSGGNINYADSVKGRFTISRDNSKNTVYLQMNSLRPEDTAVYYCNAEIVVLVGVWTQRARTGNYWGQGTLVTVSS
notes: also called RD-HBC793; RDHBC 793
[1]
  Signal:Background: 6.9 ratio
[6]
  IC50: 15 nM
[7]
  IC50: 62 nM
[8]
  FLIPR hGro-α IC50: 66 nM
[9]
  FLIPR hGro-α IC50: 350 nM

B3: 163E3 (VHH)
VHH: EVQLVESGGGLVQPGGSLRLSCVASGRIFSSNAMGWFRQAPGKEREFVAAITWRSGGSAYYADSAKGRFTISRDNAKNTVYLQMNSLKPEDTAVYYCAAGGSSWLSFPPDYWGQGTQVTVSS
notes: Tested as periplasmic extract (pAX50) and as purified His6-tagged protein (pAX100); also called 163E03; not shown: C-terminal c-myc tag and His6 tag coded by the vector
[10]
  binding result: no binding
[11]
  FLIPR % inhibition max: 100%
  FLIPR IC50 (GRO-α induced calcium release): 44.3 nM
  [35S]GTPγS % inhibition max (GRO-α): 100%
  [35S]GTPγS IC50 (GRO-α): 64.7 nM
[12]
  FLIPR % inhibition max: 100%
  FLIPR IC50 (GRO-α induced calcium release): 158 nM
[13]
  IC50: 10 nM
[14]
  IC50: 22 nM
[15]
  FLIPR hGro-α IC50: 35 nM
[16]
  FLIPR hGro-α IC50: 150 nM
[17]
  IC50 (M) at 5 nM GROα (inhibition of GRO-α, FIG. 2): 3.03e-08 M
  IC50 (M) at 15 nM GROα (inhibition of GRO-α, FIG. 2): 4.04e-08 M
  IC50 (M) at 45 nM GROα (inhibition of GRO-α, FIG. 2): 7.54e-08 M
  IC50 (M) at 150 nM GROα (inhibition of GRO-α, FIG. 2): 1.87e-07 M
[18]
  % inhibition of max: 92.4%
  IC50: 8.96 nM
[19]
  % inhibition of max: 83.5%
  IC50: 14.8 nM
[20]
  ratio of binding signal relative to blank control: 0.6 ratio
[21]
  FACS Gro-α competition (% inhibition): 80.1%
[22]
  Human Chemotaxis IC50 (GROα): 9.3 nM
  Human WBSC IC50 (rhGROα): 9.4 nM
[23]
  Cynomologus WBSC IC50 (rhGROα): > 100 nM

B4: CXCR20076 (VHH)
VHH: B3 VHH with V5L, V23A, A65V, A76S, K88R, Q117L
notes: also called RD-HBC794; MAb 794
[13]
  IC50: 16 nM
[14]
  IC50: 25 nM
[15]
  FLIPR hGro-α IC50: 31 nM
[16]
  FLIPR hGro-α IC50: 100 nM
[24]
  Signal:Background: 20 ratio
